Patent US20250277057A1 (OKLAHOMA MEDICAL RESEARCH FOUNDATION, published 2025)
Changes are numbered by the printed parent chain.

B1: HAPC-14-6 (antibody, V domains shown)
VH: EVQLVESGGGLVQPGGSLRLSCAASGFTFSFYYLNWVRQAPGKGLEWVGDIRLKKNNYEKHYAESVKGRFTISRDDSKSITYLQMNSLRAEDTAVYYCAREGDYFDYWGQGTTVTVSS
VL: DIQLTQSPSSLSASVGDRVTITCRASESVDSFGATFMHWYQQKPGKAPKLLIYLASRLGSGVPSRFSGSGSGTDFTLTISSLQPEDFATYYCQQNNEDPYTFGQGTKLEIK
notes: Whole IgG, backbone hIgG1; also called HPAC 14-6; No. 6
B2: Humanized antibody 14 (HAPC-14) (antibody, V domains shown)
VH: B1 VH with F31N, K55S
VL: B1 VL with R57N, G59E
notes: also called Humab001-14; NO; 14 antibody
B3: HAPC-14-3 (antibody, V domains shown)
VH: B1 VH
VL: B1 VL with Q93V
notes: Whole IgG, backbone hIgG1; also called HPAC 14-3; No. 3
B4: Humanized antibody 13 (HAPC-13) (antibody, V domains shown)
VH: B1 VH with F31N, K55S
VL: B1 VL with L4M, R57N, G59E
notes: also called Humab001-13; NO; 13 antibody
B5: Humanized antibody 16 (HAPC-16) (antibody, V domains shown)
VH: B1 VH with F31N, K55S
VL: B1 VL with D1N, Q3V, A47P, R57N, G59E, G72R
notes: also called Humab001-16; NO; 16 antibody

These binders were tested against T1, human protein C (human, UniProt P04070 43-461) (assay: ELISA, plate coated with hPC 1 ug/mL, anti-hIgG-Fc-HRP).
T1 construct: Zymogen form, coated on ELISA plates; also called hPC; PC
Experimental: (§1) The binding abilities of the anti-aPC monoclonal antibodies to haPC/hPC were assayed by Elisa. […] 1. ELISA plates were coated with haPC/hPC (1 ug/mL in PBS), 100 μL/well, at 4° C. overnight. […] 2. The plates were washed 3 times with PBST (0.1% Tween 20), 200 μL/well. […] 3. The plates were blocked with 2% BSA (PBS solution), 200 μL/well, at room temperature for 1 hour. […] 4. The plates were washed 3 times with PBST (0.1% Tween 20), 200 μL/well. […] 5. The plates were incubated with anti-aPC monoclonal antibody as primary antibody (diluted from 10 μg/mL in 2% BSA), 100 μL/well, at room temperature for 1 hour. […] 6. The plates were washed 3 times with PBST (0.1% Tween 20), 200 μL/well. [0200] 7. The plates were incubated with anti-hIgG-Fc antibody-HRP (diluted 5000-fold in 2% BSA buffer) at room temperature for 1 hour. [0201] 8. The plates were washed 6 times with PBST (0.1% Tween 20), 200 μL/well. [0202] 9. The plates were incubated with a TMB substrate (prepared from solutions A and B at 1:1 (v/v)), 100 μL/well, away from light for 10 minutes. […] 10. The reaction was quenched with HCl (1 M), 100 μL/well, and OD450 was read.

Span	Binder
~0.0133	B1
~0.0387	B2
~0.267	B3

These binders were tested against T2, human activated protein C (human, UniProt P04070 43-197; P04070 212-461) (assay: Octet BLI, antibody on Protein A sensor, huAPC 3.13-50 nM, 1:1 model, 25 C, pH 7.4).
T2 construct: In the plasma assays aPC is generated in human plasma with Protac; also called aPC; haPC
Experimental: (§2) Assay method: Octet analysis was carried out at 25° C. using a Protein A Octet biosensor in 1× Kinetics buffer. During the kinetics assay, the baseline step assay was run in 1× Kinetics buffer for 120 seconds, and then run for 240 seconds after the antibody was loaded to the biosensor. Next, the baseline 2 step assay was run in 1× Kinetics buffer for 120 seconds. […] The 1× Kinetics buffer was used as a blank control to show the natural dissociation of the antibody in the buffer. 10 mM glycine at pH 1.5 was used for the regeneration step. Octet data analysis software was used to calculate binding kinetics, and a 1:1 binding model was used for curve fitting.
The affinities of the mutant antibodies were assayed at pH 7.4.

Kd	koff	kon	Binder
3.64 nM	0.00108 s⁻¹	297000 M⁻¹ s⁻¹	B1
254 nM	0.0162 s⁻¹	64000 M⁻¹ s⁻¹	B2
2.67 nM	0.000854 s⁻¹	320000 M⁻¹ s⁻¹	B3

What follows are binders tested against T2, human activated protein C (assay: cell-based or functional assay).

Mean clotting time (s), FIX-deficient plasma, APC-antibody concentration 0.5 ug/ml	Mean clotting time (s), FIX-deficient plasma, APC-antibody concentration 1 ug/ml	Mean clotting time (s), FIX-deficient plasma, APC-antibody concentration 5 ug/ml	Mean clotting time (s), FVIII-deficient plasma, APC-antibody concentration 0.5 ug/ml	Mean clotting time (s), FVIII-deficient plasma, APC-antibody concentration 1 ug/ml	Mean clotting time (s), FVIII-deficient plasma, APC-antibody concentration 5 ug/ml	Binder
181 s	198 s	180 s	182 s	187 s	162 s	B1
457 s	415 s	310 s	574 s	457 s	324 s	B2
208 s	200 s	185 s	205 s	188 s	176 s	B3
502 s	402 s	326 s	629 s	546 s	301 s	B4

Each binder was assayed against T1, human protein C (assay: ELISA on plate-coated HuPC (1 ug/ml), OD450).

binding result	Binder
no binding (tested: 100 nM)	B4
no binding (tested: 100 nM)	B5

The binders below were run against T2, human activated protein C (assay: ELISA, plate coated with haPC 1 ug/mL, anti-hIgG-Fc-HRP).
Experimental: as §1

EC50	Span	Binder
0.0821 nM	1.85	B1
0.22 nM	0.291	B2
0.0618 nM	1.61	B3

What follows are binders tested against T2, human activated protein C (assay: ELISA on plate-coated APC (1 ug/ml), OD 450; EC50 from the table drawn beside the curves; no unit in the table, axis Ab Conc.(nM)).

EC50	Binder
0.249 nM	B2
0.199 nM	B4
0.172 nM	B5

The binders below were run against T2, human activated protein C (assay: Octet BLI).
Experimental: as §2

fold increase of affinity against the unmutated No. 14 antibody HAPC-14	Binder
~100 fold	B1
~100 fold	B3

Each binder was assayed against T1, human protein C (assay: ELISA on plate-coated HPC, OD450).
Experimental: as §1

binding result	Binder
no binding (tested: 10^2 nM)	B1
no binding (tested: 10^2 nM)	B2
no binding (tested: 10^2 nM)	B3
